How the values were obtained:
[1] = test system: gum arabic or potato lectin; assay: Lambda cyhalothrin amount in wells with bound microcapsules, GC/MS-MS; assay type: binding; conditions: VHH coupled to lambda cyhalothrin microcapsules
Method: An ELISA-like assay setup was used to evaluate the interaction of VHH-coupled microcapsules to antigen-containing surfaces. ELISA plates (Maxisorp (Thermo Scientific Nunc) or high bind half area microplates (Greiner Bio-One)) were coated with gum arabic or potato lectin. Coatings were performed overnight with 100 μg/ml gum arabic or potato lectin in PBS. Control wells included blank wells or wells coated with unrelated antigens. Plates were washed three times with PBS with 0.05%-TWEEN®-20 and blocked with 5% skimmed milk in PBS for 1 to 2 hours. VHH-coupled lambda cyhalothrin-containing or Uvitex-containing microcapsules were diluted to appropriate densities in 1% skimmed milk in PBS with 0.05%-TWEEN®-20. Microcapsules were added to the antigen-coated or control wells and allowed to bind for 1 hour. Unbound microcapsules were removed by washing five times with PBS with 0.05%-TWEEN®-20. The bottoms of ELISA plate wells were analyzed for bound microcapsules on a macrozoom microscope system (Nikon). Microcapsules were counted using Volocity image analysis software (Perkin Elmer). A DAPI filter was used to visualize Uvitex microcapsules. […]
In another experiment, lambda cyhalothrin amounts were also determined analytically. […] The amount of lambda cyhalothrin was determined by GC/MS-MS analysis in comparison with calibration solutions. […]

[2] = test system: grass leaf discs; assay: Leaf disc binding assay with VHH-coupled microcapsules, grass; parameters: species or system Lollium perenne; conditions: Uvitex microcapsules
Method: A leaf disc binding assay was used to evaluate the interaction of VHH-coupled microcapsules with potato, grass and azalea leaves. ø 8 mm leaf discs were sampled from the leaves of potato pot plants (variety Desiree), from the leaves of greenhouse-grown Lollium perenne and from the leaves of azalea pot plants. Leaf discs were washed three times with PBS. Microcapsules containing lambda cyhalothrin or Uvitex were diluted to appropriate densities in 1% skimmed milk in PBS with 0.05%-TWEEN®-20. Microcapsules were added to the leaf discs and settling of microcapsules and binding of targeting agents allowed for 1 hour. Unbound microcapsules were removed by washing three to five times with PBS with 0.05%-TWEEN®-20.
Leaf discs with Uvitex microcapsules were analyzed for bound microcapsules on a macrozoom microscope system (Nikon). Microcapsules were counted using Volocity image analysis software (Perkin Elmer). A DAPI filter was used to visualize Uvitex microcapsules. Controls for Uvitex microcapsules included blank microcapsules to which no VHH were coupled and microcapsules to which unrelated VHH were coupled.

Molecule	increase of amounts of lambda cyhalothrin in wells coated with antigen compared to blank microcapsules [1]	increase of amounts of lambda cyhalothrin over blank wells not coated with antigen [1]	more microcapsules bound to leaf surfaces compared to blank microcapsules [2]	more microcapsules bound to leaf surfaces compared to microcapsules coupled with unrelated VHH [2]
VHH 3E6: VHH binding gum arabic, potato lectin and leaf surface; SEQ ID NO:7 by order of the list (protein, listed as Lama glama, 3E6) VHH: QVQLQESGGGLVQPGGTLSLSCAASGFNVRWYGMGWFRQAPGKEREGVACISALQETTAYADSVKGRFTLSRDNPKNTLSLQMNNLQPEDTGVYYCATTDCDDSSRMTYTSYLGQGTQVTVSS	23 fold	27 fold		
Microcapsules containing uvitex OB VHH 3E6: polyurea microcapsules containing the fluorescent tracer Uvitex OB, coupled with (monovalent) VHH 3E6 (conjugate, left off: small tags and cut ends, polyurea microcapsules containing the fluorescent tracer Uvitex OB, coupled with (monovalent) VHH 3E6) VHH: QVQLQESGGGLVQPGGTLSLSCAASGFNVRWYGMGWFRQAPGKEREGVACISALQETTAYADSVKGRFTLSRDNPKNTLSLQMNNLQPEDTGVYYCATTDCDDSSRMTYTSYLGQGTQVTVSS			three-fold	two-fold
